Patent publication US20110065652A1
Bridge positions count the residues as written; N and C are the ends. Square brackets hold non-standard residues; d marks the D form. Orn = NCCC[C@H](N)C(=O)O; Dab = NCC[C@H](N)C(=O)O

How the values were obtained:
[1] = molecular target: human recombinant melanocortin-4 receptor (hMC4-R) (human) (UniProt P32245); test: cell-based or functional assay
[2] = molecular target: human recombinant melanocortin-5 receptor (hMC5-R) (human) (UniProt P33032); test: competitive binding against Eu-NDP-α-MSH, HEK-293 hMC5-R membranes
Chain of human recombinant melanocortin-5 receptor (hMC5-R) (human) (P33032 whole entry): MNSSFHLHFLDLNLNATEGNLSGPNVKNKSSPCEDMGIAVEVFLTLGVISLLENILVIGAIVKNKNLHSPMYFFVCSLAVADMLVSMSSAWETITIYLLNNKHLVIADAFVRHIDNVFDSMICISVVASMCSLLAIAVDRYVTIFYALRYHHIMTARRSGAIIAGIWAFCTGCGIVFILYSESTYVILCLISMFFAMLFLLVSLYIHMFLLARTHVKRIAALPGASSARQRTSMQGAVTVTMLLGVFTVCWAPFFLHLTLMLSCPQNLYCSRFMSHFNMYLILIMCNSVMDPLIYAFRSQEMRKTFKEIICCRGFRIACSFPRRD

[3] = molecular target: melanocortin-1 receptor (MC1-R), endogenous in B-16 mouse melanoma cells (mouse) (UniProt Q01727); test: competitive binding against [I125]-NDP-α-MSH, B-16 mouse melanoma membranes
Chain of melanocortin-1 receptor (MC1-R), endogenous in B-16 mouse melanoma cells (mouse) (Q01727 whole entry): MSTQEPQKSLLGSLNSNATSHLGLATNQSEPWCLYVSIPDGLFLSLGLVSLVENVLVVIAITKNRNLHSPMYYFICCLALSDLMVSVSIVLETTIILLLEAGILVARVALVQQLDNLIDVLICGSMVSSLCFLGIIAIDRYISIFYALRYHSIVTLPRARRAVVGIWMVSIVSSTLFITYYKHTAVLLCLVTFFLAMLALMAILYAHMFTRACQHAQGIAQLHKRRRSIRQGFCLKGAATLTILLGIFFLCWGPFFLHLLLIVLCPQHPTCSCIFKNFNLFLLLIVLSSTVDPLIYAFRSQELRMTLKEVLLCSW

[4] = molecular target: human recombinant melanocortin-4 receptor (hMC4-R) (human) (UniProt P32245); test: competitive binding against [I125]-NDP-α-MSH, HEK-293 hMC4-R membranes
[5] = molecular target: human recombinant melanocortin-3 receptor (hMC3-R) (human) (UniProt P41968); test: competitive binding against labelled NDP-α-MSH (I125 or Eu), HEK-293 hMC3-R membranes
Chain of human recombinant melanocortin-3 receptor (hMC3-R) (human) (P41968 whole entry): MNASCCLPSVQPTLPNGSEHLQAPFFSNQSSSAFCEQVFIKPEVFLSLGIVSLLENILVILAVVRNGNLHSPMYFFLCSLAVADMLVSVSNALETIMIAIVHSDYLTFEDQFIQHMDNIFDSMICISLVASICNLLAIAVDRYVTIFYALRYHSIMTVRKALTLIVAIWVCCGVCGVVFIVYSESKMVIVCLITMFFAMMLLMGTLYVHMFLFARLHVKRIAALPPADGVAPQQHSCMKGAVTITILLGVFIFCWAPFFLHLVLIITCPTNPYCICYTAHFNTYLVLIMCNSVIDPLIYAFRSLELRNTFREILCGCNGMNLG

Chain of human recombinant melanocortin-4 receptor (hMC4-R) (human) (P32245 whole entry): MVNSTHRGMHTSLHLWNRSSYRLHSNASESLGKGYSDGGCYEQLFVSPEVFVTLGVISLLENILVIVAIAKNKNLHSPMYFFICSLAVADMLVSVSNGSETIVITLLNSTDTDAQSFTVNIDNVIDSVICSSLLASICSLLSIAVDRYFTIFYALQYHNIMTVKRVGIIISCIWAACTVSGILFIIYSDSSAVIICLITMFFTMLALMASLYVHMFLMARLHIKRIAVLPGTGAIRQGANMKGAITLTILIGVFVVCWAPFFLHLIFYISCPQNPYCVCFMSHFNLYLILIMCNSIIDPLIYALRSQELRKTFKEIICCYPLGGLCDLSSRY

| EC50 (cAMP accumulation in HEK-293 cells expressing hMC4-R) [1] [nM] | intrinsic activity (cAMP, NDP-α-MSH is 100%) [1] [%] | Ki [2] [nM] | Ki [3] [nM] | Ki [4] [nM] | Ki [5] [nM] | Binder |
| --- | --- | --- | --- | --- | --- | --- |
| 0.3 | 94 | 300 | 1 | 0.65 | 74 | Ac-RE[Dab][dF]RW[Orn]-NH2 (lactam 2-7; also: TFA salt) [cyclic peptide of Example 8.3, Ac-Arg-cyclo(Glu-Dab-D-Phe-Arg-Trp-Orn)-NH2] |
|  | 91 | 2370 | 4 | 8 | 410 | Ac-RE[Dab][dF]RW[Orn]-OH (lactam 2-7; also: acetate and TFA salts) [cyclic peptide of Example 8.4, Ac-Arg-cyclo(Glu-Dab-D-Phe-Arg-Trp-Orn)-OH] |
